{
  "source": "patent US20040072162A1",
  "about": "“Hiv peptides and nucleic acids encoding them for diagnosis and control of hiv infection” (priority 2000, published 2004)",
  "data": [
    {"target": "HLA-A2 MHC-I (HLA-A*0204, affinity purified from the EBV transformed cell line RML) (human)", "units": {"Kd": "µM"}, "values": [
      {"binder": "ILVESPAVL (modifications not checked)", "note": "[8.16nat]", "Kd": 0.013},
      {"binder": "YIKIFIMIV (modifications not checked)", "note": "[8.93nat]", "Kd": 0.024},
      {"binder": "LNFPISPI (modifications not checked)", "note": "[8.115nat]", "Kd": 0.029},
      {"binder": "KTKPPLPSV (modifications not checked)", "note": "[8.10natT]", "Kd": 0.039},
      {"binder": "NIWATHACV (modifications not checked)", "note": "[8.75natV]", "Kd": 0.057},
      {"binder": "ALAALITPK (modifications not checked)", "note": "[8.12nat]", "Kd": 0.062},
      {"binder": "ATLEEMMTA (modifications not checked)", "note": "[8.65nat]", "Kd": 0.077},
      {"binder": "ALGIIQAQ (modifications not checked)", "note": "[8.116nat]", "Kd": 0.097},
      {"binder": "GMGSPQILV (modifications not checked)", "note": "[8.15natM (4.40)]", "Kd": 0.12},
      {"binder": "SLVKHHMYV (modifications not checked)", "note": "[4.14]", "Kd": 0.021},
      {"binder": "SLVKHHMYI (modifications not checked)", "note": "[4.14 variant]", "Kd": 0.123},
      {"binder": "GLADQLIHM (modifications not checked)", "note": "[8.11natM]", "Kd": 0.135},
      {"binder": "ALVEMGHHA (modifications not checked)", "note": "[8.3nat]", "Kd": 0.16},
      {"binder": "NTVATLYCV (modifications not checked)", "note": "[8.49nat]", "Kd": 0.17},
      {"binder": "RTLNAWVKV (modifications not checked)", "note": "[8.54nat]", "Kd": 0.17},
      {"binder": "WLFKLVPV (modifications not checked)", "note": "[8.121mod]", "Kd": 0.183},
      {"binder": "WCFKLVPV (modifications not checked)", "note": "[8.121nat]", "Kd": 0.2},
      {"binder": "YLAWVPAHK (modifications not checked)", "note": "[8.42nat]", "Kd": 0.2},
      {"binder": "TLQEQIGWM (modifications not checked)", "note": "[8.56nat]", "Kd": 0.245},
      {"binder": "VVAAIIAIV (modifications not checked)", "note": "[8.1nat]", "Kd": 0.26},
      {"binder": "FLWMGYELH (modifications not checked)", "note": "[8.21nat]", "Kd": 0.445},
      {"binder": "LCFGWCFKL (modifications not checked)", "note": "[8.45natC]", "Kd": 0.58},
      {"binder": "RLAFHHMAR (modifications not checked)", "note": "[8.47nat]", "Kd": 0.67},
      {"binder": "TGNPPIPV (modifications not checked)", "note": "[8.123natG]", "Kd": 0.7},
      {"binder": "ALGPAATLE (modifications not checked)", "note": "[8.64nat]", "Kd": 0.83},
      {"binder": "AIEAQQHLL (modifications not checked)", "note": "[8.88nat]", "Kd": 0.85},
      {"binder": "FLGAAGST (modifications not checked)", "note": "[8.135nat]", "Kd": 0.87},
      {"binder": "SGGDPEIV (modifications not checked)", "note": "[8.130nat]", "Kd": 0.95},
      {"binder": "LKTAVQMAV (modifications not checked)", "note": "[8.33nat]", "Kd": 1.33},
      {"binder": "LQLPPIERL (modifications not checked)", "note": "[8.14nat]", "Kd": 0.0073}
    ]}
  ]
}
